Data taken from article PMC8546573.

Legend:
[1] = molecular target: biotinylated soluble human PDGFRα (UniProt P16234); assay: cell-based binding (staining of transfected 293E cells with soluble PDGFRα and 13H11 scFv); conditions: read off a plot
[2] = molecular target: HCMV gHgLgO trimer with full-length gH on HEK293-6E cells, gO K359A (human cytomegalovirus, strain AD169 | human cytomegalovirus, strain TR) (UniProt P12824); assay: flow cytometry on cells; HEK293-6E cells cotransfected with full-length gH, gL and gO (wt or mutant) stained with 4 μg/ml biotinylated PDGFRα in PBS with 0.5% BSA, room temperature, half an hour, then Alexa Fluor 647-streptavidin; PDGFRα staining set against staining by the gH antibody 13H11 and compared with wt
[3] = molecular target: HCMV gHgLgO trimer with full-length gH on HEK293-6E cells, gO R214A (human cytomegalovirus, strain AD169 | human cytomegalovirus, strain TR) (UniProt P12824); assay: as above
[4] = molecular target: HCMV gHgLgO trimer with full-length gH on HEK293-6E cells, gO R236A (human cytomegalovirus, strain AD169 | human cytomegalovirus, strain TR) (UniProt P12824); assay: as above
[5] = molecular target: HCMV gHgLgO trimer with full-length gH on HEK293-6E cells, gO R236N/P238S (human cytomegalovirus, strain AD169 | human cytomegalovirus, strain TR) (UniProt P12824); assay: as above
[6] = molecular target: HCMV gHgLgO trimer with full-length gH on HEK293-6E cells, gO Y240A (human cytomegalovirus, strain AD169 | human cytomegalovirus, strain TR) (UniProt P12824); assay: as above

Substance	other: ratio of PDGFRα/13H11 binding [1]	other results
HCMV gHgLgO trimer with full-length gH on the surface of HEK293-6E cells, gO wild type (from UniProt P12824;P16832) gO:K123A	0.87	–
HCMV gHgLgO trimer with full-length gH on the surface of HEK293-6E cells, gO wild type (from UniProt P12824;P16832) gO:F113N	0.73	–
HCMV gHgLgO trimer with full-length gH on the surface of HEK293-6E cells, gO wild type (from UniProt P12824;P16832) gO:Q117A	0.81	–
HCMV gHgLgO trimer with full-length gH on the surface of HEK293-6E cells, gO wild type (from UniProt P12824;P16832) gO:R119A	0.9	–
HCMV gHgLgO trimer with full-length gH on the surface of HEK293-6E cells, gO wild type (from UniProt P12824;P16832) gO:T116A	0.62	–
HCMV gHgLgO trimer with full-length gH on the surface of HEK293-6E cells, gO wild type (from UniProt P12824;P16832) gO:E346A	1.2	–
HCMV gHgLgO trimer with full-length gH on the surface of HEK293-6E cells, gO wild type (from UniProt P12824;P16832) gO:F138A	0.82	–
HCMV gHgLgO trimer with full-length gH on the surface of HEK293-6E cells, gO wild type (from UniProt P12824;P16832) gO:R232A	0.96	–
HCMV gHgLgO trimer with full-length gH on the surface of HEK293-6E cells, gO wild type (from UniProt P12824;P16832) gO:F113A	0.75	–
HCMV gHgLgO trimer with full-length gH on the surface of HEK293-6E cells, gO wild type (from UniProt P12824;P16832) gO:R349A	1	–
HCMV gHgLgO trimer with full-length gH on the surface of HEK293-6E cells, gO wild type (from UniProt P12824;P16832) gO:P343A	1.2	–
HCMV gHgLgO trimer with full-length gH on the surface of HEK293-6E cells, gO wild type (from UniProt P12824;P16832) gO:Y371A	1.1	–
HCMV gHgLgO trimer with full-length gH on the surface of HEK293-6E cells, gO wild type (from UniProt P12824;P16832) gO:R338A	0.95	–
HCMV gHgLgO trimer with full-length gH on the surface of HEK293-6E cells, gO wild type (from UniProt P12824;P16832) gO:R239A	1.1	–
HCMV gHgLgO trimer with full-length gH on the surface of HEK293-6E cells, gO wild type (from UniProt P12824;P16832) gO:K194A	1.1	–
biotinylated soluble human PDGFRα (from UniProt P16234 24-528) (receptor)	–	percent of wild-type binding [2]: < 33 % of wt; percent of wild-type binding [3]: < 33 % of wt; percent of wild-type binding [4]: < 33 % of wt; percent of wild-type binding [5]: 50 % of wt; percent of wild-type binding [6]: < 33 % of wt
